From publication PMC9844538 (Nature chemical biology, 2022)

Target: MtbGyrBAcore(Y129F) (Mycobacterium tuberculosis, UniProt P9WG45 426-675+P9WG47:2-500, Y129F;internal_change)
Assay: X-ray crystallography

Binder: GGCCCTACGGCTGAAAGCCGTAGGGCCCTACGGCTGAAAGCCGTAG (structured_DNA) [singly nicked duplex with GAA triloop ends]
- binding result: binds
